According to IntAct's records for PubMed 15486100:

B1: Transcription factor PIF5 (Arabidopsis thaliana (Mouse-ear cress)), Q84LH8 (parent)
chain: MEQVFADWNFEDNFHMSTNKRSIRPEDELVELLWRDGQVVLQSQARREPSVQVQTHKQETLRKPNNIFLDNQETVQKPNYAALDDQETVSWIQYPPDDVIDPFESEFSSHFFSSIDHLGGPEKPRTIEETVKHEAQAMAPPKFRSSVITVGPSHCGSNQSTNIHQATTLPVSMSDRSKNVEERLDTSSGGSSGCSYGRNNKETVSGTSVTIDRKRKHVMDADQESVSQSDIGLTSTDDQTMGNKSSQRSGSTRRSRAAEVHNLSERRRRDRINERMKALQELIPHCSRTDKASILDEAIDYLKSLQMQLQVMWMGSGMAAAAAAAASPMMFPGVQSSPYINQMAMQSQMQLSQFPVMNRSAPQNHPGLVCQNPVQLQLQAQNQILSEQLARYMGGIPQMPPAGNQMQTVQQQPADMLGFGSPAGPQSQLSAPATTDSLHMGKIG
B2: Transcription factor PIF4 (Arabidopsis thaliana (Mouse-ear cress)), Q8W2F3-2 (parent)
chain: MEHQGWSFEENYSLSTNRRSIRPQDELVELLWRDGQVVLQSQTHREQTQTQKQDHHEEALRSSTFLEDQETVSWIQYPPDEDPFEPDDFSSHFFSTMDPLQRPTSETVKPKSSPEPPQVMVKPKACPDPPPQVMPPPKFRLTNSSSGIRETEMEQYSVTTVGPSHCGSNPSQNDLDVSMSHDRSKNIEEKLNPNASSSSGGSSGCSFGKDIKEMASGRCITTDRKRKRINHTDESVSLSDAIGNKSNQRSGSNRRSRAAEVHNLSERVLHRFVYIIYNI
B3: Transcription factor PIF6 (Arabidopsis thaliana (Mouse-ear cress)), Q8L5W7 (parent)
chain: MMFLPTDYCCRLSDQEYMELVFENGQILAKGQRSNVSLHNQRTKSIMDLYEAEYNEDFMKSIIHGGGGAITNLGDTQVVPQSHVAAAHETNMLESNKHVDDSETLKASSSKRMMVDYHNRKKIKFIPPDEQSVVADRSFKLGFDTSSVGFTEDSEGSMYLSSSLDDESDDARPQVPARTRKALVKRKRNAEAYNSPERNQRNDINKKMRTLQNLLPNSHKDDNESMLDEAINYMTNLQLQVQMMTMGNRFVTPSMMMPLGPNYSQMGLAMGVGMQMGEQQFLPAHVLGAGLPGINDSADMLRFLNHPGLMPMQNSAPFIPTENCSPQSVPPSCAAFPNQIPNPNSLSNLDGATLHKKSRKTNR
B4: Transcription factor PIF3 (Arabidopsis thaliana (Mouse-ear cress)), O80536 (parent)
chain: MPLFELFRLTKAKLESAQDRNPSPPVDEVVELVWENGQISTQSQSSRSRNIPPPQANSSRAREIGNGSKTTMVDEIPMSVPSLMTGLSQDDDFVPWLNHHPSLDGYCSDFLRDVSSPVTVNEQESDMAVNQTAFPLFQRRKDGNESAPAASSSQYNGFQSHSLYGSDRARDLPSQQTNPDRFTQTQEPLITSNKPSLVNFSHFLRPATFAKTTNNNLHDTKEKSPQSPPNVFQTRVLGAKDSEDKVLNESVASATPKDNQKACLISEDSCRKDQESEKAVVCSSVGSGNSLDGPSESPSLSLKRKHSNIQDIDCHSEDVEEESGDGRKEAGPSRTGLGSKRSRSAEVHNLSERRRRDRINEKMRALQELIPNCNKVDKASMLDEAIEYLKSLQLQVQIMSMASGYYLPPAVMFPPGMGHYPAAAAAMAMGMGMPYAMGLPDLSRGGSSVNHGPQFQVSGMQQQPVAMGIPRVSGGGIFAGSSTIGNGSTRDLSGSKDQTTTNNNSNLKPIKRKQGSSDQFCGSS

Variants of: B1
Details: with phyb_arath PHYB
L32A was tested, and the “effect of a mutation on the interaction” value was “decreasing interaction”.
E31A was tested, and the “effect of a mutation on the interaction” value was “decreasing interaction”.
With G37A the “effect of a mutation on the interaction” value was “decreasing interaction”.
With Q38A the “effect of a mutation on the interaction” value was “decreasing interaction”.

Variants of: B2
Details: with phyb_arath PHYB
With E29A;G35A the “effect of a mutation on the interaction” value was “decreasing interaction”.
With G35A the “effect of a mutation on the interaction” value was “decreasing interaction”.

Variants of: B3
Details: with phyb_arath PHYB
For E19A;G25A, the “effect of a mutation on the interaction” value was “decreasing interaction”.

Variants of: B4
Details: with phyb_arath PHYB
In the case of E31A;G37A, the “effect of a mutation on the interaction” value is reported as “decreasing interaction”.
